Test results taken from PMC6744678.

Biological target: T1, taxol-stabilized microtubules, P02550
T1 chain: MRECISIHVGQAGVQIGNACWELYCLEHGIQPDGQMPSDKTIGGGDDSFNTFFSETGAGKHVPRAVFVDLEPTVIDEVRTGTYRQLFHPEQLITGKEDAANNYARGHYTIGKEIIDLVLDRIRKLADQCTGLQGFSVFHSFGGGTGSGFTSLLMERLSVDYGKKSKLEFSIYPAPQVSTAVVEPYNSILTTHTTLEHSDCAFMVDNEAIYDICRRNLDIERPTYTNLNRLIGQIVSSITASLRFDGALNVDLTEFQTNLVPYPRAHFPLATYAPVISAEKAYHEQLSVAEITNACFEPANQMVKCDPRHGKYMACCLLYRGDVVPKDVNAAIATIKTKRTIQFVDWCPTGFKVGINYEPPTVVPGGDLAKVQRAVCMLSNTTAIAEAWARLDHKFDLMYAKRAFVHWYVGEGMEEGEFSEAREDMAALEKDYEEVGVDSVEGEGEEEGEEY
Assay: GST pull-down of microtubules, quantified tubulin band intensity
Conditions: chain shown with the change; BRB80 buffer at room temperature; n=3; parent: est. 27; read off a plot

B1: GST-tagged full-length (1-314 aa) CCDC74B M67N; L68N; A69N; L71N; L230N; L233N; L234N (protein)
chain: MSGAGVAAGTRPPSSPTPGSRRRRQRPSVGVQSLRPQSPQLRQSDPQKRNLDLEKSLQFLQQQHSENNNKNHEEIEHLKRENKDLRYKLIMNQTSQKKDSLSTSSFQSVKSISNSGKARPQPGSFNKQDSKADVPQKADLEEEPLLHNSKLDKVPGVQGQARKEKAEASNAGAACMGNSQHQGRQMGAAAHPPMILPLPLRKPTTLRQCEVLIRELWNTNLLQTQELQHNKSNNEGSQRPQAVPEEASFPRDQEATHFPKVSTKSLSKKCLLLSPPVAERAILPALKQTPKNNFAERQKRLQAMQKRRLHRSVL
B1 showed a response (relative intensity (GST = 1.0)) of 25.
